The source of these data is patent US10973857B2, “Mesenchymal stem cell and use thereof for treatment of muscle injury and muscle-associated diseases” (EXOSTEM BIOTEC LTD., priority 2016, dated 2021).

The subject of the assay is MSCs. Nature of the assay: Protocol 3 differentiation of MSCs to hybrid cells with growth factors. It is filed as cell-based. Particulars: individually and in combination, as replacements or in combination with HGF and PDGF. Here is the method:
A shortened third protocol (Protocol 3) was examined and was also found to produce MSC-muscle cell hybrid cells. The MSCs were cultured in normal MSC culturing conditions followed by supplementation of the media for 24 hours with 5-AZA. The cells were than grown in media supplemented with 2% horse serum and HGF and PDGF for 2 weeks. […] The following growth factors were tested both individually and in combination as replacements or in combination with HGF and PDGF: EGF, IGF1, PDGFAA, PDGFBB, and VEGF. […] Additionally, the protocol could be halted by moving the treated MSCs to non-supplemented MSC media. Hybrid cells that were produced could thus be halted from further differentiation.
All three protocols were also performed with MSCs that had first undergone myogenic priming as described above.

B1: EGF: growth factor (protein, UniProt P01133 23-1207, looked up)
Pro-epidermal growth factor: PQHWSCPEGTLAGNGNSTCVGPAPFLIFSHGNSIFRIDTEGTNYEQLVVDAGVSVIMDFHYNEKRIYWVDLERQLLQRVFLNGSRQERVCNIEKNVSGMAINWINEEVIWSNQQEGIITVTDMKGNNSHILLSALKYPANVAVDPVERFIFWSSEVAGSLYRADLDGVGVKALLETSEKITAVSLDVLDKRLFWIQYNREGSNSLICSCDYDGGSVHISKHPTQHNLFAMSLFGDRIFYSTWKMKTIWIANKHTGKDMVRINLHSSFVPLGELKVVHPLAQPKAEDDTWEPEQKLCKLRKGNCSSTVCGQDLQSHLCMCAEGYALSRDRKYCEDVNECAFWNHGCTLGCKNTPGSYYCTCPVGFVLLPDGKRCHQLVSCPRNVSECSHDCVLTSEGPLCFCPEGSVLERDGKTCSGCSSPDNGGCSQLCVPLSPVSWECDCFPGYDLQLDEKSCAASGPQPFLLFANSQDIRHMHFDGTDYGTLLSQQMGMVYALDHDPVENKIYFAHTALKWIERANMDGSQRERLIEEGVDVPEGLAVDWIGRRFYWTDRGKSLIGRSDLNGKRSKIITKENISQPRGIAVHPMAKRLFWTDTGINPRIESSSLQGLGRLVIASSDLIWPSGITIDFLTDKLYWCDAKQSVIEMANLDGSKRRRLTQNDVGHPFAVAVFEDYVWFSDWAMPSVMRVNKRTGKDRVRLQGSMLKPSSLVVVHPLAKPGADPCLYQNGGCEHICKKRLGTAWCSCREGFMKASDGKTCLALDGHQLLAGGEVDLKNQVTPLDILSKTRVSEDNITESQHMLVAEIMVSDQDDCAPVGCSMYARCISEGEDATCQCLKGFAGDGKLCSDIDECEMGVPVCPPASSKCINTEGGYVCRCSEGYQGDGIHCLDIDECQLGEHSCGENASCTNTEGGYTCMCAGRLSEPGLICPDSTPPPHLREDDHHYSVRNSDSECPLSHDGYCLHDGVCMYIEALDKYACNCVVGYIGERCQYRDLKWWELRHAGHGQQQKVIVVAVCVVVLVMLLLLSLWGAHYYRTQKLLSKNPKNPYEESSRDVRSRRPADTEDGMSSCPQPWFVVIKEHQDLKNGGQPVAGEDGQAADGSMQPTSWRQEPQLCGMGTEQGCWIPVSSDKGSCPQVMERSFHMPSYGTQTLEGGVEKPHSLLSANPLWQQRALDPPHQMELTQ
modifications: Pro-epidermal growth factor
With B1, the “production of hybrid cells from MSCs” value is “found to produce hybrid cells”.

B2: PDGFBB: growth factor (protein, UniProt P01127 82-190, looked up)
Platelet-derived growth …: SLGSLTIAEPAMIAECKTRTEVFEISRRLIDRTNANFLVWPPCVEVQRCSGCCNNRNVQCRPTQVQLRPVQVRKIEIVRKKPIFKKATVTLEDHLACKCETVAAARPVT
modifications: BB homodimer
notes: growth factor
B2: the “production of hybrid cells from MSCs” value is “found to produce hybrid cells”.
